Data on 167 variants can be found in the RNAGym collection of RNA variant scans (doi:10.1073/pnas.2313332121).

B1: TPR t1 (parent)
chain: GACCAAUCUGCCCUCAGAGCUCGAGAACAUCUUCGGAUGCAGAGGAGGCAGGCUUCGGUGGCGCGAUAGCGCCAACGUCCUCAACCUCCAAUGCAUCCCACCACAUGAUGAUGCCUGAAGAGCCUUGGUUUUUUG

In this data set the parent is B1. The data set is described as follows: polymerase ribozyme fitness, log enrichment relative to wild type (log ratio); higher = more active; in vitro selection for triplet polymerase activity. The method in brief: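 Mutant libraries for each subunit of a heterodimeric triplet polymerase ribozyme were made by PCR and then transcribed. Each library underwent one round of in vitro selection in triplicate: annealing with a biotinylated primer, the partner subunit and triplets, frozen incubation at −7 °C, gel excision of extended constructs, streptavidin-bead capture and RT-PCR. Input and output libraries were Illumina-sequenced, and only genotypes with ≥10 input reads and ≥1 read per output were kept. Fitness is the logarithm, base 2, of genotype enrichment over wild-type enrichment, computed from inverse-variance-weighted replicate averages.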
For C62U C73U C79U C80U U112A, the “polymerase ribozyme fitness (log ratio)” value was -3.4.
C49U A50G G51A U54G G61A U112C: the “polymerase ribozyme fitness (log ratio)” value is -0.096.
In the case of G17A C49G A50G U106A it was -3.86.
In the case of A2U C62U G117U it was -5.02; in that of A37U G69C U112A G128U, -4.19.
In the case of C8G C20U C89A A100U C102A it was -5.22.
In the case of A6U C40U C56U G69C A121C, the “polymerase ribozyme fitness (log ratio)” value is -6.3.
Next, C101G G127U: -2.83; G71C C104A: -3.63.
In the case of C8A C72U U133A it was -0.145; in that of A37U G52A G61A A105G G127C, -4.21; in that of C8U A29U C62U A83C C88G A119G, -2.75.
With C56G A66C, the “polymerase ribozyme fitness (log ratio)” value is -1.08.
As to U109A U132C, the “polymerase ribozyme fitness (log ratio)” value is -5.12.
Next, C40U U92C G110A G117C: -6.39.
C3G G60C: the “polymerase ribozyme fitness (log ratio)” value was -1.74.
Next, A37G C114A: -1.28; C8A C28G C53A: -2.01; U7G C8U A90U A121C: 1.04.
Next, C11U G44C G61U C104U U116C: -2.32.
For A16U A41G U78G A100U, the “polymerase ribozyme fitness (log ratio)” value was -3.98.
Next, G77A C98U U126C U130C: -1.62; C12G C49G C70A C97U: -1.84; C79G C94G G113A: -5.05.
In the case of C40U G45U G63A it was -2.6.
In the case of G19A U32A A84U it was -6.42; in that of C3A G71C C114G, -4.21; in that of G44A C101U, -1.1.
With G69A C123G, the “polymerase ribozyme fitness (log ratio)” value was -0.288.
For the variant U21A G63C, the “polymerase ribozyme fitness (log ratio)” value was -0.995.
Next, G19C A37U C124U: -1.48; G45A G51A C79A: -3.77; G10U U78C: -0.395.
On to C4U G47A C56U C73U C101U A119G G120U G127A, for which the “polymerase ribozyme fitness (log ratio)” value was -0.428.
Next, U92C U106G G135C: -3.67; C20G C40A A66G G71A G93U U112C: -6.06; U81G G120U: -3.76.
Next, C49U G60A C97G: -5.67; A43U C73U: -0.963; U96G C102G C124U U125A: -6.03.
For A6U G63C C80U G93C U106A, the “polymerase ribozyme fitness (log ratio)” value was -3.58.
In the case of G45A U87G it was -0.388; in that of A2G G35C C124A, -4.18; in that of A2G C97U G117A A119G, -0.0934.
In the case of C11U C40U G60U G77C A111U it was -4.37.
Regarding G44U A46U C70U, the “polymerase ribozyme fitness (log ratio)” value was -3.55.
Next, A27G G42U A75G: -3.6.
In the case of C15G C22U A37G U38G G63C G110C it was -5.93; in that of A2G A27U C79G C104U, -4.76; in that of U55G C56U A95U, -1.91.
With G42A C49G, the “polymerase ribozyme fitness (log ratio)” value was -1.71.
With A37G U132C, the “polymerase ribozyme fitness (log ratio)” value was -1.86.
Next, U9G G39A C56U: 0.0691.
Next, G63C C85G U130G: -1.36; C73G A84U: -1.52.
Next, C12U C13G C70G: -2.49; C56U C104A: -1.58; G39A U112A: 0.854.
Consider C72G A108G G120A C124G U131G, for which the “polymerase ribozyme fitness (log ratio)” value is -1.26.
Take C8U C73U U112A: the “polymerase ribozyme fitness (log ratio)” value came to 1.84.
As for A5C G23U G71C U112C U126A U131A, the “polymerase ribozyme fitness (log ratio)” value was -4.82.
Next, A27U C40U C82A: -3.5.
In the case of A5C A6U G69U A121G it was 2.34.
For the variant C28U U32A C70U G120C, the “polymerase ribozyme fitness (log ratio)” value is -6.64.
As for C76A C89A, the “polymerase ribozyme fitness (log ratio)” value was -3.18.
Regarding G19C C101A G120U C124A G135C, the “polymerase ribozyme fitness (log ratio)” value was -3.1.
In the case of A6C G10A C15A G25A A43U G45C C86G U106G G113U, the “polymerase ribozyme fitness (log ratio)” value is -7.45.
Next, A37U G58C A75U C80U G93A C97A: -6.83; U7A C53U C73U C86U A90G G122A: -2.05; C73G U130C: -0.482.
In the case of G36A C49A G110C it was -5.65.
In the case of C22G C56U A105U U112C it was -2.05; in that of C56A A83U C85U C99U, -3.58; in that of C20A C34A A41C U109A, -4.4.
In the case of C11G C97A C102U, the “polymerase ribozyme fitness (log ratio)” value was -4.77.
Next, A6G G48U U54A C79U U87A: -4.01; G71U A121G U125A: 1.48.
In the case of A37C U38G it was -1.27.
U14C G63C U112G G113U: the “polymerase ribozyme fitness (log ratio)” value was -5.75.
G47U G120C: the “polymerase ribozyme fitness (log ratio)” value is -0.748.
Regarding G19U C88A, the “polymerase ribozyme fitness (log ratio)” value is -2.97.
As to A74U U78C G120C, the “polymerase ribozyme fitness (log ratio)” value turned out to be 0.366.
Next, G10A C40A C56A A84C C85A C99A C115U: -7.46; C8G C62A C94A G120U: 0.318.
In the case of G60A G63A C114U it was -4.85.
Next, A43G G120U: -1.47.
C11G C64U: the “polymerase ribozyme fitness (log ratio)” value was -0.506.
In the case of G42C G60A G120U it was -2.21; in that of A6U A16U C40G C56A, -3.22; in that of G42A U55C A95C U109A, -6.59.
Next, A74C A105C: -2.34; C11U C56A A91U U96C: -3.51; A27G C28A G52U: -5.13.
In the case of A18G U54A C88G A111C G113C U125A it was -3.51; in that of U7G C104A C123G G128C, -3.67.
Consider C11A C12A G71A C89G A90G C101U U133G, for which the “polymerase ribozyme fitness (log ratio)” value was -4.22.
In the case of A37U C40A G69C U130A it was -3.51; in that of G17C C72U C88A, -4.4.
In the case of G48A C88G it was -0.075; in that of G23A G69U G93U, -4.63; in that of U78G C114G U129A, -4.16.
In the case of C40A G47A G60A A75U C86U C97U C123A U132A it was -1.57.
Turning to G61U A83C, the “polymerase ribozyme fitness (log ratio)” value is -0.327.
Next, A50C C86G G127U: -2.12; G44U C70A U129A U131A: -3.71.
Take C20U G45U G52A C73G C94U C104U: the “polymerase ribozyme fitness (log ratio)” value is -4.54.
On to C11G C12U G42C G69C, for which the “polymerase ribozyme fitness (log ratio)” value was -5.66.
In the case of G44A A50C G63A C85A it was -4.52; in that of U9A U14G A41C G42U G60U, -0.928.
Next, C11U U32G U38G U54C C99G G120C: -6.93.
In the case of A41U C72A it was -1.82; in that of C3U A5G C34U G61C C62G C94U U109A C115U, -6.29.
Take A6G C70A C97U: the “polymerase ribozyme fitness (log ratio)” value is -1.59.
G10C G57C G117C: the “polymerase ribozyme fitness (log ratio)” value is -4.35.
Next, A24U G42U A43U C94G U112A U129A: -7.92.
Next, C56U G69C: -4.69; C11A C73U C94U: -1.82.
In the case of C15G A37U C56U C123A it was -1.93; in that of C56A U112A G120A G135U, -2.22.
On to G63C U78C A105C, for which the “polymerase ribozyme fitness (log ratio)” value was -3.52.
Next, C8U C72U C82A A84C A111C: 0.264; U14A A29G U55C C72U C86U: -4.41.
Next, C8U C22A C62U: -4.04.
Next, A43G U78A C88U U109G: -7.02; G39A C49U U78C: -1.72; G39A U55A G77C A84C: -2.23.
C49A A121U: the “polymerase ribozyme fitness (log ratio)” value is 1.97.
In the case of U59C C70A it was -2.41; in that of G35U C70U C72U G120C, -6.33.
For G48U C72G C86A U125G G127C, the “polymerase ribozyme fitness (log ratio)” value is -4.47.
In the case of G47A G58C G113A A121C U125C U131C, the “polymerase ribozyme fitness (log ratio)” value is -0.547.
Next, C99A G127C: -5.7; C13A U21C G57A U59G A75U C86U C97U: -5.71.
In the case of A18C A24G G58A U92C it was -5.73; in that of G57U U78A C80U, -0.707; in that of G52C A83G, -1.31.
Regarding C31U C70U, the “polymerase ribozyme fitness (log ratio)” value is -4.33.
Consider G63C C79G, for which the “polymerase ribozyme fitness (log ratio)” value was -0.109.
Next, G10U A16C C49U A118G C124A: -2.5; C62U C89G G93A C101U G113C C114U G127C: -4.42.
C11G A16G G60A C64U G110A A118G: the “polymerase ribozyme fitness (log ratio)” value is -6.79.
As to C3U C76G, the “polymerase ribozyme fitness (log ratio)” value is -1.27.
In the case of A5C C13U A84C U131A it was -2.02; in that of C11U G51U A119U, -3.53.
A83C A84C: the “polymerase ribozyme fitness (log ratio)” value was -0.925.
Next, C34U C86U C104U C114U: -4.34; C11G A50C C72A U92G C114A G122C U131C: -3.27; C40U A83G G128A U129G: -3.53.
In the case of C31U G135U it was -4.94; in that of G42U G63A G93U, -3.94; in that of U55G C115U, -0.797.
In the case of C72G A90U it was -1.11; in that of A43G C86U A91U C101U U131A, -1.79.
For the variant U112A G128U, the “polymerase ribozyme fitness (log ratio)” value was -0.362.
For the variant A27U A118G, the “polymerase ribozyme fitness (log ratio)” value is -3.19.
With C20U C85A, the “polymerase ribozyme fitness (log ratio)” value is -3.94.
In the case of C20A U112G it was -1.72; in that of C12G C40A A50C C80A A84C C104U, -3.24; in that of U21C C22A C88U, -4.68.
In the case of A68U C97A G120C it was -6.59.
Next, C28G G61A G113C: -5.25; A50U G58C G71C C104A C124A: -3.2; U54C C72U C89U A111C: -0.0742.
On to C94A U112C U126G, for which the “polymerase ribozyme fitness (log ratio)” value was -0.847.
As to A29U C99U U106A, the “polymerase ribozyme fitness (log ratio)” value is -4.1.
In the case of G60U G120U it was 0.205; in that of G69C G77U U87A G117U, -5.49.
